Results taken from patent US12497460B2, “Anti-MSR1 antibodies and methods of use thereof” (REGENERON PHARMACEUTICALS, INC., priority 2018, dated 2025).

T1: His9-hMSR1 (human MSR1 extracellular domain) (Homo sapiens, UniProt P21757)
T1 construct: human MSR1 extracellular domain expressed with a N-terminal nonahistidine tag; His9 (nonahistidine) (N); purchased R&D Systems 2708-MS
T1 sequence (P21757 77-451 limits assumed): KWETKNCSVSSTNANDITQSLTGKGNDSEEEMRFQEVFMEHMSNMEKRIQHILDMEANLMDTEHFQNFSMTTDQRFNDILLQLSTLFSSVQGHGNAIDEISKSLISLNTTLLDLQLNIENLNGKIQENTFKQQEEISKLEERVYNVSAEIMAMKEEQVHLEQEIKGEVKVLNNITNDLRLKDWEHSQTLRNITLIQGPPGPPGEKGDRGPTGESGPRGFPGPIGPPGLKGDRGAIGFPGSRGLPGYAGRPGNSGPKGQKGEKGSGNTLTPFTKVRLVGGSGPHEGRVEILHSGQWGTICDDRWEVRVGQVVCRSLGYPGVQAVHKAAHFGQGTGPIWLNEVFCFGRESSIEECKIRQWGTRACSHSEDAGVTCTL


Tests used:
[1] = target: T1, His9-hMSR1 (human MSR1 extracellular domain); assay: Biacore T200 surface plasmon resonance binding kinetics of anti-MSR1 antibody-drug conjugates and parental antibodies; conditions: 25° C.; for kd: * = no dissociation observed, kd manually fixed at 1.00E−05
Procedure: The MSR1 antibodies disclosed herein were conjugated to various liver X receptor (LXR) payloads or various steroid payloads. This example describes how equilibrium dissociation constant (KD) values for human MSR1 reagents binding to human anti-MSR1 antibody-drug conjugates and their corresponding unconjugated parental antibodies were determined using a real-time surface plasmon resonance-based Biacore T200 biosensor.
All binding studies were performed in 10 mM HEPES, 300 mM NaCl, 3 mM EDTA, and 0.05% v/v Surfactant Tween-20, pH 7.4 (HBS-ET) running buffer at 25° C. The Biacore CM4 sensor chip surface was first derivatized by amine coupling with the goat anti-human Fcγ specific polyclonal antibody (Jackson ImmunoResearch Laboratories, Cat #BR-1008-39) to capture anti-MSR1 monoclonal antibodies. Binding studies were performed on human MSR1 extracellular domain expressed with a N-terminal nonahistidine tag (His9-hMSR1; R&D Systems, Cat #2708-MS).
The association rate (ka) and dissociation rate (kd) were determined by fitting the real-time binding sensorgrams to a 1:1 binding model with mass transport limitation using Scrubber 2.0c curve-fitting software. Binding dissociation equilibrium constant (KD) and dissociative half-life (t½) were calculated from the kinetic rates as: […]
Binding kinetics parameters for His9-hMSR1 binding to different anti-MSR1 antibody-LXR ADCs and their unconjugated parental antibodies at 25° C. are shown in Table 19. “LP1” represents a linker-payload for which the payload structure is provided in Example 11.
The binding studies were repeated with anti-MSR1 antibody H1H21234-N297Q and steroid linker payloads (LPs). “LP3” represents a linker-payload for which the structure is provided in Example 23, and “LP13” represents a linker-payload for which the structure is provided in Example 24.

LXR (THP1/LXR-Luc cells) = assay: LXR-luciferase reporter bioassay (Example 31); assay type: cell-based, human; conditions: 48 hours; for EC50: differentiated THP1/LXR-Luc cells; for S/N: signal to noise, ratio of RLU of standard one over standard eight
Excerpt: Generation of assay cell line. To test the efficacy of anti-MSR1 antibody-LXR conjugates in vitro, a cell-based LXR responsive luciferase reporter assay was developed. To generate the assay cell line, a LXR regulated luciferase reporter gene [Cignal Lenti LXR Reporter (luc) kit (Qiagen, Cat #CLS-001 L)] was transduced into THP1 cells, and cells were selected for two weeks in puromycin. The lentivirus expresses the firefly luciferase gene under the control of a minimal CMV promoter and tandem repeats of the LXR transcriptional response element. The resulting cell line is referred to as THP1/LXR-Luc cells.
Assay protocol. THP1/LXR-Luc cells were seeded onto 96 well plates at 40,000 cells/well in media containing RPMI supplemented with 10% FBS and pencillin/streptomycin and subsequently differentiated with 200 nM Phorbol Myristate Acetate (PMA) for 3 days. After the 3-day differentiation period, three-fold serial dilutions of antibody drug conjugates, unconjugated antibodies, or free payloads in fresh media were added to the cells at final concentration ranging from 100 nM to 0.01 nM. Media alone served as a blank control. Forty-eight hours later, luciferase activity was determined after the addition of One-Glo™ reagent (Promega, Cat #E6130) to each well. Relative light units (RLUs) were measured on a Victor luminometer (PerkinElmer) and EC50 values were determined using a four-parameter logistic equation over a 10-point dose response curve (GraphPad Prism). The signal to noise (S/N) was determined by calculating the ratio of RLU of standard one over RLU of standard eight for each of the unconjugated anti-MSR1 antibodies or free payloads. “LP #” represents a linker-payload for which the corresponding structures are provided elsewhere herein, and “P #” represents a payload for which the corresponding structures are provided elsewhere herein.

[2] = Table 19, antibody-LXR ADCs and unconjugated antibodies

Molecule | ka [1, 2] [M⁻¹ s⁻¹] | kd ([1]; Table 19) | EC50 (LXR (THP1/LXR-Luc cells)) [nM] | S/N (LXR (THP1/LXR-Luc cells)) | ka ([1]; Table 20, antibody-steroid ADCs and unconjugated antibody) [M⁻¹ s⁻¹] | kd ([1]; Table 20) [s⁻¹]
H1H27729P-N297Q-LP1 (conjugate) VH: QVQLVESGGGLVKPGGSLRLSCAASGFIFSDYYMSWIRQAPGKGLEWVSYISSSGTTIYGDSVKGRFTMSRDNAKNSLYLQMNSLRAEDTAVYYCARNYALFDYWGQGTLVTVSS VL: DIQMTQSPSSLSASVGDRVTITCQASQDISKYLNWYQQKPGKAPKLLIYYTSNLETGVPSRFSGSGSGTDFTFTISSLQPEDIATYYCHQSDYLPFTFGPGTKVDIKR | 54700 | 0.000718 s⁻¹ | 1.64 | 14.5 | – | –
H1H27739P-N297Q-LP1 (conjugate) VH: EVQLVESGGGLVQPGGSLRLSCTASGFTFSSYAMSWVRQAPGKGLEWVSAISGTGSSTYFTDSVKGRFAISRDNSKNTLYLQMNSLRAEDTAVYYCAKDGEWLSTVTLFDYWGQGTLVTVSS VL: EIVMTQSPATLSVSPGERATLSCRASQSVSSNLAWYQQKPGQAPRLLIYGASTRATGIPARFSGSGSGTDFTLTISSLQSEDFALYYCQQYFIWPPHPTFGPGTKVDIKR | 88800 | 0.000722 s⁻¹ | 1.6 | 21.0 | – | –
H1H27734P-N297Q-LP1 (conjugate) VH: EVQLVESRGGLVQPGGSLRLSCAASGFTFSSYAMSWVRQAPGKGLEWVSAISGSGGSTFYADSVKGRFTISRDNSKNTVYLQMNSLRAEDTAVYYCAKALVLRFLEWLGDYWGQGTLVTVSS VL: DIQMTQSPSTLSASVGDRVTITCRASQSISSWLAWFQQKPGKAPKLLIYKASSLESGVPSRFSGSGSGTEFTLTISSLQPDDFATYYCQQYKSYWTFGQGTKVEIKR | 69300 | 0.000449 s⁻¹ | 5.19 | 17.8 | – | –
H1H21234N-N297Q-LP3 (conjugate) VH: QVQLQESGPGLVKPSETLSLTCTVTGGSISRNYWSWIRQPPGKGLEWIGYIYYSGSIDYNPSLKSRVTISVDTSKNQFSLKLSSMTAADTAVYYCARDRWNWKYGMDVWGQGTTVIVSS VL: EIVLTQSPGTLSLSPGERATLSCRASQTVRNNYLAWYHQKPGQAPRLLIYGASSRATGIPDRFSGSGSGTDFTLTISRLEPEDFTVYYCHQYGNSPWTFGQGTKMEIKR | – | – | – | – | 417000 | 1e-05
H1H27731P-N297Q-LP1 (conjugate) VH: QLQLQESGPGLVKPSETLSLTCTVSGGSISRISYYWGWIRQPPGKGLEWIGSIYDSGSTYYNPSLKSRVTISIDTSKNQFSLKLSSVTAADTAVYYCVRYSSSSAFAFDYWGQGTLVTVSS VL: DIQMTQSPSSVSASVGDRVTITCRASQGISSWLAWYQQKPGKAPKLLIYAASSLQSGVPSRFSGSGSGTDFTLTISSLQPEDFATYYCQQANSFPFTFGPGTKVDIKR | 128000 | 1.00E−05* s^−1 | 1.46 | 15.5 | – | –
H1H27747P-N297Q-LP1 (conjugate) VH: QVQLVESGGAVVQPGRSLRLSCAASGFTFSYYGMHWVRQAPGKGLEWVAVISYDGSKKYYADSVKGRFTISRDNSKNTLYLQMNSLRAEDTAVYYCAKDLTVDFYYGMDVWGQGTTVTVSS VL: DIQMTQSPSSVSASVGDRVTITCRASQGISSWLAWYQQKPGKAPKLLIYATSSLQSGAPSRFSGSGSGTDFTLTISSLQPEDFATYFCQQANSFPYTFGQGTKLEIKR | 136000 | 0.000203 s⁻¹ | 4.77 | 20.6 | – | –
H1H27754P-N297Q-LP1 (conjugate) VH: EVQLVESGGGLVQPGGSLRLSCAASGFTFRTYAMTWVRQAPGKGLDWVSAITGDGGNTYYADSVKGRFTISRDNSKNTLYLQMNSLRAEDTAIYYCAKDQRFSFALYYFDYWGQGTLVTVSS VL: DIQMTQSPSSVSASVGDRVTITCRASQGISSWLAWYQQKPGNAPKLLIYAAFSLQSGVPSRFSGSGSGTDFTLTISSLQPEDFATYYCQQANNFPWTFGQGTKVEIKR | 177000 | 1.00E−05* s^−1 | 1.3 | 17.3 | – | –
